B1: "Lethal(3)malignant brain tumor-like protein 3" (Homo sapiens), Q96JM7 (parent)
chain: MTESASSTSGQEFDVFSVMDWKDGVGTLPGSDLKFRVNEFGALEVITDENEMENVKKATATTTWMVPTAQEAPTSPPSSRPVFPPAYWTSPPGCPTVFSEKTGMPFRLKDPVKVEGLQFCENCCQYGNVDECLSGGNYCSQNCARHIKDKDQKEERDVEEDNEEEDPKCSRKKKPKLSLKADTKEDGEERDDEMENKQDVRILRGSQRARRKRRGDSAVLKQGLPPKGKKAWCWASYLEEEKAVAVPAKLFKEHQSFPYNKNGFKVGMKLEGVDPEHQSVYCVLTVAEVCGYRIKLHFDGYSDCYDFWVNADALDIHPVGWCEKTGHKLHPPKGYKEEEFNWQTYLKTCKAQAAPKSLFENQNITVIPSGFRVGMKLEAVDKKNPSFICVATVTDMVDNRFLVHFDNWDESYDYWCEASSPHIHPVGWCKEHRRTLITPPGYPNVKHFSWDKYLEETNSLPAPARAFKVKPPHGFQKKMKLEVVDKRNPMFIRVATVADTDDHRVKVHFDGWNNCYDYWIDADSPDIHPVGWCSKTGHPLQPPLSPLELMEASEHGGCSTPGCKGIGHFKRARHLGPHSAANCPYSEINLNKDRIFPDRLSGEMPPASPSFPRNKRTDANESSSSPEIRDQHADDVKEDFEERTESEMRTSHEARGAREEPTVQQAQRRSAVFLSFKSPIPCLPLRWEQQSKLLPTVAGIPASKVSKWSTDEVSEFIQSLPGCEEHGKVFKDEQIDGEAFLLMTQTDIVKIMSIKLGPALKIFNSILMFKAAEKNSHNEL

Variants of: B1
Details: with dnmt1_human DNMT1, P26358
Chain of dnmt1_human DNMT1, P26358 (P26358 whole entry): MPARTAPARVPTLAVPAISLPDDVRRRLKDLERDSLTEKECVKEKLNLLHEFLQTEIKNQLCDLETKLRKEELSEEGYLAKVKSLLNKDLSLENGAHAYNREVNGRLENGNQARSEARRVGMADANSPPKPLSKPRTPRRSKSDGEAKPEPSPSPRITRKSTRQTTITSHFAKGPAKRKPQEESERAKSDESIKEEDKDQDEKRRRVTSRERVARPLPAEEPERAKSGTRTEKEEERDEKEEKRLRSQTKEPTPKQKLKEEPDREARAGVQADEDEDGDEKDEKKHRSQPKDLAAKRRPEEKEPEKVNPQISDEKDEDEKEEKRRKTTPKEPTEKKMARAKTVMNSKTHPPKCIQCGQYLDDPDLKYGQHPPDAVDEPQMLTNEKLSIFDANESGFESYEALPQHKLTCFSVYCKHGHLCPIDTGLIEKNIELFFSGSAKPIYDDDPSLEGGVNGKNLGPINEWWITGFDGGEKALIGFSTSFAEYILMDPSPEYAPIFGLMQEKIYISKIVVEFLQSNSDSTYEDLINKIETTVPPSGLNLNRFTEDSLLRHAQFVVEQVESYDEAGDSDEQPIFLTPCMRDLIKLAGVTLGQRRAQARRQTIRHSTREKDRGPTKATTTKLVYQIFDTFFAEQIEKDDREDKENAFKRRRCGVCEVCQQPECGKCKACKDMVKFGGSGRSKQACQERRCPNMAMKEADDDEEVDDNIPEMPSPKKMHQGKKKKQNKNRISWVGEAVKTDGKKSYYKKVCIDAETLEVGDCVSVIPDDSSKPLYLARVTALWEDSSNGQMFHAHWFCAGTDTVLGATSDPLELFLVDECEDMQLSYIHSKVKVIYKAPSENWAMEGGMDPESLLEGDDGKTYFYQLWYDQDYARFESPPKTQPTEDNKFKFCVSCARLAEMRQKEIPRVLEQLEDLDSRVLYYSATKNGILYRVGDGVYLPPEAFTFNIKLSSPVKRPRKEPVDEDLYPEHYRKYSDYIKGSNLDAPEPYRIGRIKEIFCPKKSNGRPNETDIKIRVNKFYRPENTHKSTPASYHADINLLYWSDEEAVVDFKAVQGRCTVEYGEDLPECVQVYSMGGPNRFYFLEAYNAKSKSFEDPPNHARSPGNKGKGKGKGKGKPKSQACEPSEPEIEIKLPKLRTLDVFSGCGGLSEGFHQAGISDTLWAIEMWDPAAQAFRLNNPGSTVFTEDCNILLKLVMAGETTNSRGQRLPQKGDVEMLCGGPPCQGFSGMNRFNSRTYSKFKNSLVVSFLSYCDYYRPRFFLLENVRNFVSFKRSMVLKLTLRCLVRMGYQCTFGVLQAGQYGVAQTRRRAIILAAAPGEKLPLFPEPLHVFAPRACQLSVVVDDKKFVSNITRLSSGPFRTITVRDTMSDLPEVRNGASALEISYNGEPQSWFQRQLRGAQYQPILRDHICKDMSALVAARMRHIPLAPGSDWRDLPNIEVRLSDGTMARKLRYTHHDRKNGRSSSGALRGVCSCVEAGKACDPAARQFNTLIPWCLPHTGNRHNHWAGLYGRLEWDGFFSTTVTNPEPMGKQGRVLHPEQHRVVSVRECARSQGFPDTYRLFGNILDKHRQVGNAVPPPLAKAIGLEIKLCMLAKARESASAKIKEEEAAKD

Variant | effect of a mutation on the interaction
D381N | disrupting interaction strength

Variants of: B1
Details: with dnmt1_human DNMT1, P26358
Remark: another data set of the same source

Variant | effect of a mutation on the interaction
D381N | decreasing interaction strength

Source: IntAct's records for PubMed 29691401
